Assay [1] addresses LDL receptor (LDLR) on human glioblastoma multiforme cells (human) (UniProt P01130). Briefly: ^125I-LDL saturation binding to U-251 MG cells (average of 2 experiments).
Assay [2] shares this target. Briefly: ^125I-LDL saturation binding to A-172 cells.
Assay [3] shares this target. Kind of assay: ^125I-LDL saturation binding to U-343 MG cells.
The target is the same in assay [4]. Briefly: ^125I-LDL saturation binding to SF-767 cells.
The target is the same in assay [5]. Briefly: ^125I-LDL saturation binding to SF-763 cells.
The target is the same in assay [6]. Kind of assay: ^125I-LDL saturation binding to SF-539 cells.

As for “native plasma LDL (low density lipoprotein; LDLR ligand apoB100 on its surface), P04114 28-4563”, the Bmax (ng/mg cell protein) turned out to be 225 in assay [1]; 1400 in assay [2]; 510 in assay [3]; 793 in assay [4]; 900 in assay [5]; 310 in assay [6].

(Values after patent US20100047163A1.)
